Residue numbers refer to the chain shown, from its start.
Tests used:
[1] = target: T1, Recombinant human PSGL-1(ECD)-hFc1 (R&D Systems, Cat. 3345-PS) (human, UniProt Q14242 42-305); assay: blocking ELISA vs VISTA-Fc, pH 6.0
T1 construct: Bought; Gln42-Val295 counted on AAC50061; also called PSGL-1-Fc; PSGL-1-hFc1 chimera; not shown: human IgG1 Fc, Pro100-Lys330
T1 sequence: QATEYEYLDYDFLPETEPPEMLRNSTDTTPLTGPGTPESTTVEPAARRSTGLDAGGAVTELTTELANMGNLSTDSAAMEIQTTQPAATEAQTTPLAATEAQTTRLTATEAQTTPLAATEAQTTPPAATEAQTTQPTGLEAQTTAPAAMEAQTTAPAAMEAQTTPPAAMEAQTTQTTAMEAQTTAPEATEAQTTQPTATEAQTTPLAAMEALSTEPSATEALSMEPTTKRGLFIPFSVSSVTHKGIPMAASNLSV

[2] = target: T1, Recombinant human PSGL-1(ECD)-hFc1 (R&D …); assay: blocking ELISA vs L-selectin-Fc
Description: (§1) A typical selectin blocking ELISA assay involved coating high binding half-well plates (Corning, Cat. #3690) with 2.5 ug/mL/25 ul per well of recombinant PSGL-1-Fc protein (R&D Systems, Cat #3345-PS) in PBS, pH 7.4, overnight at 4° C. […] Antibody (test and controls) was serially diluted (25 ul/well) in duplicate in assay buffer (3% BSA in wash buffer) into appropriate wells and the plate incubated for 45 min at 37° C. […] The plate was washed ×3 and HRP-conjugated streptavidin was added in assay buffer [25 ul per well; (Jackson Immunoresearch, Cat. #016-030-084)] and the plate incubated for 45 min at 37° C. […] For each antibody, an IC50 value was determined from sigmoidal fitted titration curves.

[3] = target: T2, Cynomolgus PSGL-1(ECD)-HIS (cynomolgus macaque); assay: ELISA, plate cyno PSGL-1(ECD)-HIS
T2 construct: also called Cyno PSGL1-His
T2 chain: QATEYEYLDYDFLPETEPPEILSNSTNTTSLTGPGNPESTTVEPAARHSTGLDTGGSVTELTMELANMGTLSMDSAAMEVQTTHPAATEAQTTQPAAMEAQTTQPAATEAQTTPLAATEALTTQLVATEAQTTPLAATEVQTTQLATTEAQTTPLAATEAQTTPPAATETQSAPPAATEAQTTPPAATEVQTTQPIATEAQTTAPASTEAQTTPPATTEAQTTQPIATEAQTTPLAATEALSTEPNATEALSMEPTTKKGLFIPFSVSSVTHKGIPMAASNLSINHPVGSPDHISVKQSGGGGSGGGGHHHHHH
Description: Antibody binding to plate-immobilized cyno PSGL-1(ECD) was determined either at one concentration (20 nM) or by generating full antibody binding curves (0.003-200 nM). A typical ELISA was performed by overnight coating at 4° C. with 3 ug/mL/25 ul per well of recombinant cyno PSGL-1(ECD) protein in PBS, pH 7.4, in high binding half-well plates (Corning Cat. #3690). […] Anti-PSGL-1 IgG in assay buffer (blocking buffer containing 0.05% tween 20) was added into test and control wells (20 nM/25 ul/well) and the plate incubated for 45 min at 37° C. […] The plate was incubated for 45 min at 37° C., and mAb bound to plate-immobilized target determined at A450 nm using HRP substrate (3,3′,5,5′-tetramethylbenzidine (TMB)). For each antibody, duplicate values were averaged and assay background subtracted.

[4] = target: T3, Biotin PSGL-1(42-62) peptide, unmodified (human, C-terminal Lys-biotin); assay: ELISA, immobilized biotin peptide
T3 construct: Residues 42-62 followed by GGGK-biotin; also called WT; wild-type
T3 peptide: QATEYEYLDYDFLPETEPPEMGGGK
Procedure, shortened: (§2)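 In this ELISA, half-well high binding plates (Corning Cat. #3690) received 3 ug/mL/25 ul per well of biotin-tagged PSGL-1 peptides covering residues 42 to 62, diluted in PBS, pH 7.4, and coated overnight at 4° C. Duplicate readings for each antibody were averaged and the average assay background was subtracted. PSGL-1 protein or peptide was the positive control.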

[5] = target: T4, Scrambled Y46,48,51(SO3) PSGL-1(42-62) biotin peptide (sulfotyrosine at peptide positions 5, 7 and 10; C-terminal Lys-biotin); assay: ELISA, immobilized biotin peptide
T4 construct: also called scrambled sulfated peptide: biotin
T4 peptide: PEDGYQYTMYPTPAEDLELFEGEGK
Procedure, shortened: as §2

[6] = target: T5, Biotin sY51 PSGL-1(42-62) peptide (human, sulfotyrosine at Y51; C-terminal Lys-biotin); assay: ELISA, immobilized biotin peptide
T5 construct: also called Y51(SO3) PSGL-1(42-62)
T5 peptide: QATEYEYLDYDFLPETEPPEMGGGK
Procedure, shortened: as §2

[7] = target: T1, Recombinant human PSGL-1(ECD)-hFc1 (R&D …); assay: blocking ELISA vs P-selectin-Fc
Description: as §1

[8] = target: T6, PSGL-1 endogenously expressed on HL-60 cells (UniProt Q14242 42-412); assay: flow cytometry on HL-60 cells; against parent 20I15
T6 construct: whole, on cells
T6 sequence (looked up): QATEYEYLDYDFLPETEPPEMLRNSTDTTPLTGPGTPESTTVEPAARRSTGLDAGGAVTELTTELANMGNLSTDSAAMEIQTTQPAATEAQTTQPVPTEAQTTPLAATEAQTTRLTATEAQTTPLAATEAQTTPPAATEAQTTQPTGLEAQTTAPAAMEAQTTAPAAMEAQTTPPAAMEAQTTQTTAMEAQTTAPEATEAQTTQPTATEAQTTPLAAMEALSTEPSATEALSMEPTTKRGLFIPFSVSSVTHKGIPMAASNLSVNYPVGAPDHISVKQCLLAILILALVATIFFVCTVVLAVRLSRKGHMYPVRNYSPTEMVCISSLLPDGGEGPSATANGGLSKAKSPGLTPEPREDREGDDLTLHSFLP
Description: (§3) A typical flow cytometry assay was performed by resuspending HL-60 cells in FACS buffer (5% FBS and 0.05% Sodium Azide in PBS, pH 7.2) on ice, pelleting cells by centrifugation at 500×g for 3 min, washing cells with FACS buffer, and then blocking Fc receptors on the cells with Fc block (human TruStain FcX™, BioLegend Cat. #422302) on ice for 10 min. After washing, 50,000 cells/50 ul in FACS buffer was added to each well of a 96-well round bottomed plate (Costar, Cat. #3797), and 50 ul of serially diluted (0.06 nM-1.0 uM) test or isotype control antibody was added into duplicate wells. The plate was covered and incubated on ice for 1 h. After washing, Phycoerythrin (PE) conjugated anti-human IgG secondary antibody (Abcam; Cat. #ab99825) was added to each well and the plate incubated in the dark on ice for 30 min. After washing, the cells were fixed (1% paraformaldhyde).

[9] = target: T6, PSGL-1 endogenously expressed on HL-60 …; assay: flow cytometry on HL-60 cells
Description: as §3

[10] = target: T6, PSGL-1 endogenously expressed on HL-60 …; assay: flow cytometry on HL-60 cells; against parent 19L04
Description: as §3

B1: 18L13 (antibody, V domains shown)
VH: EVQLQQSGAELVRPGASVKLSCTASGFNIKDDFMHWVKQRPEQGLEWIGRIDPASGKTEYVPKFQDKATLTADTSSNTAYLQLSSLTSEDTAVYYCARRIAYWGQGTLVTVSA
VL: DVVMTQTPLTLSVTIGQPASISCKSSQSLLHSNGKTYLNWLLQRPGQSPKLLIYLVSKLESGLPDRFSGSGSGTDFSLKISRVEAEDLGVYYCLQTTHFPQTFGGGTKLEIK
notes: Mouse hybridoma mAb; only variable domains given
[1]
  % max Block: 0%
[2]
  % max Block: 0%
[3]
  EC50: 0.76 nM
[4]
  EC50: 0.764 nM
[5]
  EC50: 2.63 nM
[6]
  EC50: 0.914 nM
[7]
  % max Block: 0%

B2: 20I15.001 (antibody, IgG4, V domains shown)
VH: EVQLVESGGGLVQPGGSLRLSCAASGFTFTDYYMSWVRQAPGKGLEWLGFIRNKANGYTTEYSASVKGRFTISRDNSKNSLYLQMNSLKTEDTAVYYCARTYLRRGYFDVWGQGTLVTVSS
VL: DIQLTQSPSTLSASVGDRVTITCRASKSVSTSGYSYMHWFQQKPGKAPKLLIYLASNLESGVPSRFSGSGSGTEFTLTISSLQPDDFATYYCQHSRELPLTFGQGTKLEIK
notes: Humanised; also called 20115.001
[8]
  HL-60 EC50 (normalized): 0.4 fold
[9]
  EC50: 0.5 nM

B3: 20I15.007 (antibody, IgG4, V domains shown)
VH: B2 VH with Q3K, K78Q
VL: B2 VL with Q3V, E74D
notes: Humanised
[8]
  HL-60 EC50 (normalized): 0.6 fold
[9]
  EC50: 0.8 nM

B4: 20I15.008 (antibody, IgG4, V domains shown)
VH: B2 VH with Q3K, N56Q, K78Q
VL: B2 VL with Q3V, E74D
notes: Humanised
[8]
  HL-60 EC50 (normalized): 1.1 fold
[9]
  EC50: 1.6 nM

B5: 20I15.006 (antibody, IgG4, V domains shown)
VH: B2 VH with N56S
VL: B2 VL with Q3V, E74D
notes: Humanised
[8]
  HL-60 EC50 (normalized): 0.6 fold
[9]
  EC50: 0.8 nM

B6: 20I15.003 (antibody, IgG4, V domains shown)
VH: B2 VH with Q3K, K78Q
VL: B2 VL
notes: Humanised
[8]
  HL-60 EC50 (normalized): 1.1 fold
[9]
  EC50: 1.6 nM

B7: 20I15.004 (antibody, IgG4, V domains shown)
VH: B2 VH with Q3K, N56Q, K78Q
VL: B2 VL
notes: Humanised
[8]
  HL-60 EC50 (normalized): 0.7 fold
[9]
  EC50: 1 nM

B8: 20I15.005 (antibody, IgG4, V domains shown)
VH: B2 VH
VL: B2 VL with Q3V, E74D
notes: Humanised
[8]
  HL-60 EC50 (normalized): 0.9 fold
[9]
  EC50: 1.3 nM

B9: 20I15.002 (antibody, IgG4, V domains shown)
VH: B2 VH with N56S
VL: B2 VL
notes: Humanised
[8]
  HL-60 EC50 (normalized): 0.7 fold
[9]
  EC50: 1 nM

B10: 19L04.002 (antibody, IgG4, V domains shown)
VH: QIQLVQSGSELKKPGASVKVSCKASGYTFTTYGMSWVRQAPGQGLKWMGWINTYSGVPTYADDFKGRFVFSLDTSVSTAYLQISSLKAEDTAVYFCARHYYGSHYFDYWGQGTLVTVSS
VL: DIVMTQSPDSLAVSLGERATIRCKSSQSLLSSSNQKNYLAWYQQKPGQPPKLLVYFASTRESGVPDRFSGSGSGTDFTLTISSLQAEDVAVYYCQQHYFSPLTFGQGTKLEIK
notes: Humanised
[9]
  EC50: 2.5 nM
[10]
  HL-60 EC50 (normalized): 1.3 fold

B11: 19L04.008 (antibody, IgG4, V domains shown)
VH: QIQLVQSGAEVKKPGASVKVSCKASGYTFTTYGMSWVRQAPGQGLKWMGWINTYSGVPTYADDFKGRFTFTLDTSISTAYMELSRLRSDDTAVYFCARHYYGSHYFDYWGQGTLVTVSS
VL: B10 VL with I21L, D66V, Y93F
notes: Humanised
[9]
  EC50: 2.9 nM
[10]
  HL-60 EC50 (normalized): 1.5 fold

B12: 19L04.006 (antibody, IgG4, V domains shown)
VH: B10 VH
VL: B10 VL with I21L, D66V, Y93F
notes: Humanised
[9]
  EC50: 3.5 nM
[10]
  HL-60 EC50 (normalized): 1.8 fold

B13: 19L04.004 (antibody, IgG4, V domains shown)
VH: B11 VH
VL: B10 VL
notes: Humanised
[9]
  EC50: 8.9 nM
[10]
  HL-60 EC50 (normalized): 4.5 fold

From patent publication US20220396632A1 (VERSEAU THERAPEUTICS, published 2022)
